Experiment: label from the status in PepcDB records

Row | Sequence | protein production
1 | MEDDCEELQVPVGTLTSIGFSISNNNDRDKMSVLEVEAPNQVTDSRLGLPNPDSVCRTCGSKDRKVCEGHFGVINFAYSIINPYFLKEVAALLNKICPGCKYIRKKQFQITEDQPERCRYCTLNTGYPLMKFRVTTKEVFRRSGIVVEVNEESLMKLKKRGVLTLPPDYWSFLPQDSNIDESCLKPTRRIITHAQVYALLLGIDQRLIKKDIPMFNSLGLTSFPVTPNGYRVTEIVHQFNGARLIFDERTRIYKKLVGFEGNTLELSSRVMECMQYSRLFSETVSSSKDSANPYQKKSDTPKLCGLRFMKDVLLGKRSDHTFRTVVVGDPSLKLNEIGIPESIAKRLQVSEHLNQCNKERLVTSFVPTLLDNKEMHVRRGDRLVAIQVNDLQTGDKIFRSLMDGDTVLMNRPPSIHQHSLIAMTVRILPTTSVVSLNPICCLPFRGDFDGDCLHGYVPQSIQAKVELDELVALDKQLINRQNGRNLLSLGQDSLTAAYLVNVEKNCYLNRAQMQQLQMYCPFQLPPPAIIKASPSSTEPQWTGMQLFGMLFPPGFDYTYPLNNVVVSNGELLSFSEGSAWLRDGEGNFIERLLKHDKGKVLDIIYSAQEMLSQWLLMRGLSVSLADLYLSSDLQSRKNLTEEISYGLREAEQVCNKQQLMVESWRDFLAVNGEDKEEDSVSDLARFCYERQKSATLSELAVSAFKDAYRDVQALAYRYGDQSNSFLIMSKAGSKGNIGKLVQHSMCIGLQNSAVSLSFGFPRELTCAAWNDPNSPLRGAKGKDSTTTESYVPYGVIENSFLTGLNPLESFVHSVTSRDSSFSGNADLPGTLSRRLMFFMRDIYAAYDGTVRNSFGNQLVQFTYETDGPVEDITGEALGSLSACALSEAAYSALDQPISLLETSPLLNLKNVLECGSKKGQREQTMSLYLSEYLSKKKHGFEYGSLEIKNHLEKLSFSEIVSTSMIIFSPSSNTKVPLSPWVCHFHISEKVLKRKQLSAESVVSSLNEQYKSRNRELKLDIVDLDIQNTNHCSSDDQAMKDDNVCITVTVVEASKHSVLELDAIRLVLIPFLLDSPVKGDQGIKKVNILWTDRPKAPKRNGNHLAGELYLKVTMYGDRGKRNCWTALLETCLPIMDMIDWGRSHPDNIRQCCSVYGIDAGRSIFVANLESAVSDTGKEILREHLLLVADSLSVTGEFVALNAKGWSKQRQVESTPAPFTQACFSSPSQCFLKAAKEGVRDDLQGSIDALAWGKVPGFGTGDQFEIIISPKVHGFTTPVDVYDLLSSTKTMRRTNSAPKSDKATVQPFGLLHSAFLKDIKVLDGKGIPMSLLRTIFTWKNIELLSQSLKRILHSYEINELLNERDEGLVKMVLQLHPNSVEKIGPGVKGIRVAKSKHGDSCCFEVVRIDGTFEDFSYHKCVLGATKIIAPKKMNFYKSKYLKNGTLESGGFSENP | failed
2 | MEDELPIIKGKKVILFAPTFRGSGHGTAHYPFFKIDFERLARYCEKNNAVVLFKMHPFVKNRLNIADKHKQYFVDVSDFREVNDILFITDLLISDYSSLIYEYAVFKKPMIFYAFDLEDYITTRDFYEPYESFVPGKIVQSFDALMDALDNEDYEGEKVIPFLDKHFKYQDGRSSERLVRNLFGS | not failed
3 | MEDEPGSENEADTIVASPLAKWRIEFSKSFQNYLDRSAPNIVRRWLVTLVAAVIYIYRVYSVYGYFVISYGLATYILNLLIGFLSPKVDPELEALDPDSLPVDESDEYKPFVRRLPEFKFWYAATKAFVVAFVMTFFSFLDVPVFWPILLCYWLVLYSLTMKRLIVHMFKYRYFPFDVRKPVKLLKFLVNSVLTFLRLKKQIQIGHHTRRTVWTRVYLLDFLDIGLANIHRVYAQLHLQQQQNIVKDIAMRDYWRDSIRQFPRKYLFITYQRFDEKSFLVSANHPKSAMEATTRILSTSSALNRLLLLSKLNLKSDPRNINSTNQLLHNAVTRKSSISAARIRCSSLPANANLFRSLFFLTSTFRLENTAVHANPFRSEPNDGVAVWNRAPRIVNGGGNAAIFGGNEGKETTVVLLGWLGAKAKHLRRYVEWYNSRGINAVTFTVDVRDLLRLDLGRRLERRIAEFGNELVNWVSEKEDDGREKCLVFHSFSNTGWLVYGALLESFIGRQDLVERIKGCIIDSGGADPLDTKVCSLFHVTKSFKCYSMVSPLLQDLVLEVEMSILL | failed
4 | MEDFNMESDSFEDFWKGEDLSNYSYSSTLPPFLLDAAPCEPESLEINKYFVVIIYALVFLLSLLGNSLVMLVILYSRVGRSVTDVYLLNLALADLLFALTLPIWAASKVNGWIFGTFLCKVVSLLKEVNFYSGILLLACISVDRYLAIVHATRTLTQKRYLVKFICLSIWGLSLLLALPVLLFRRTVYSSNVSPACYEDMGNNTANWRMLLRILPQSFGFIVPLLIMLFCYGFTLRTLFKAHMGQKHRAMRVIFAVVLIFLLCWLPYNLVLLADTLMRTQVIQETCERRNHIDRALDATEILGILHSCLNPLIYAFIGQKFRHGLLKILAIHGLISKDSLPKDSRPSFVGSSSGHTSTTL | not failed
5 | MEDGHISSWWVVDLGEEHQLMCNYYTFRQDGSRAFTRFWKFQGSMDGKTWTDLRVHEDDQTMCKAGQFASWPITAANALLPFRFFRLVLTGPTADTSTPWNFCICYLELYGYFR | failed
6 | MEDIKIKEIFENIYEVDLGDGLKRIATKSIVKGKKVYDEKIIKIGDEEYRIWNPNKSKLAAAIIKGLKVMPIKRDSKILYLGASAGTTPSHVADIADKGIVYAIEYAPRIMRELLDACAERENIIPILGDANKPQEYANIVEKVDVIYEDVAQPNQAEILIKNAKWFLKKGGYGMIAIKARSIDVTKDPKEIFKEQKEILEAGGFKIVDEVDIEPFEKDHVMFVGIWEGK | not failed
7 | MEDLEETLFEEFENYSYDLDYYSLESDLEEKVQLGVVHWVSLVLYCLAFVLGIPGNAIVIWFTGFKWKKTVTTLWFLNLAIADFIFLLFLPLYISYVAMNFHWPFGIWLCKANSFTAQLNMFASVFFLTVISLDHYIHLIHPVLSHRHRTLKNSLIVIIFIWLLASLIGGPALYFRDTVEFNNHTLCYNNFQKHDPDLTLIRHHVLTWVKFIIGYLFPLLTMSICYLCLIFKVKKRSILISSRHFWTILVVVVAFVVCWTPYHLFSIWELTIHHNSYSHHVMQAGIPLSTGLAFLNSCLNPILYVLISKKFQARFRSSVAEILKYTLWEVSCSGTVSEQLRNSETKNLCLLETAQ | failed
8 | MEDQCIISHLAGIFSGVLATDFLRYAVGAGGVYLTVNLALAARLRARKIRAYEPPKGQIGREILASLRTVLIFALNGTLIVVGAEAGLVPIYREIATHGWAYLFFSTTVLIVAHDTWFYWSHRLLHYPPIFRRFHRLHHKSHNPTPFTSYSFDLGEAVVNAIYLPLILLVLPAHPVAILVFVTHMMLRNAIGHSGYEIFPANRRGKPLFDWITTVTHHDLHHAHAGYNLGLYFTWWDRLMGTEHPDYHEAFQKVAKPASWPSVRAVILAFAIFTGIAVSDARAERLSGAYASPGFGVIVRFEPCNANPGLTCGRMIWAWDAAEVPHAQSGDVIVIDLHGDGNVWSGRLKNPENGRMYRGSVVQRSPDTIVLRGCAGPFCTSQIWHSVRALRRALESAE | failed
9 | MEDSSLLSPISLLTIVIFLFILNLMMIIQDFSSSFPFRFHLFFSNAYILFTSIRNNKQNTELPIIKKVVVPNRADIKTSVEEVKAIIDDSEALYECLIEEGEEYLLEKNEMMGKEIVKEAFRLFDENQDGFIDENELKHVLSLLGYDECTKMECRKMVKVYDENRDGKIDFYEFVKLIEKSFS | failed
10 | MEDTMSKKAKKIIKIVVISIVTLAITICFGGYMMFHNEIKTLHSIEKLDDYPFYMMEYYGDYGLDEFLEQGGASSDSELVSFVVKRLMKGLPIEINIPSLGCSTFTAVTPENEYLFGRNFDLSYSPAMMVRTKPEKGYESVSMVNLGFIGYGKDKLPDNFFNSITTLAGPYAPLDGMNEKGLSVGVLLIPTEETNQTTNKVDITTTTAIRMILDTCATVEEAVDLLSQYDMHSSANSCYHFQIADANGTSVVVEYINNEMKLVEPKQAYQAATNFLLTPGDYDFGHGQDRYNTLMTTLDKKQGVLSEKEAMNLLKAVSQQPHKTKDGSISATQWSVVYNNTKRTATVSMGMDYQHTYEIKLFE | failed
11 | MEEENNLNSKDTQNTFLKGSAWMTFGSIASRILGALYIIPWYAWMGQYGNIANALTARSYNIYTIFILISTAGIPGAIAKQVAKYNALNEYGIGRRLFHKGLILMAILGVVSAAIMYFASPLLASNGSQSDPRQIAVMRSLSYAILIIPILSIMRGYFQGYADMMPSAMSQFVEQFARVVWMLLTAFVIMQVQHGSYVHAVIQSNLAAAVGAAFGIGLLVWFLFSRRKQLDYLVANSNNRLRVSTTELFAEIIEQAIPFIIIDSGITLFSLVDQYTFHPMIAGLVHASSDAIEDWYALFGLNANKLIMIIVSLASAMAVTAIPLLSAAHTRGDYKSISRQIANTMDLFLFVMIPAAFGMAAISRPIYTVFYGPDQLGSNVLYLSAFTAISLGLFTVLMAILQGLSENGLAIKYLVLGLILKGILQYPMIFLFKIYGPLVATNLGLLVIVLLSLKHLEVQYNFNLNRTSRRLVGITAFSIGMFIIVKLVEMGLGKFLSPDRRISALILVIVAVSIGIIFYGFAALKTDLAQKIMGSKIESILVRLRIHD | failed
12 | MEEGDFFNCCFSEISSGMTMNKKKMKKSNNQKRFSEEQIKSLELIFESETRLEPRKKVQVARELGLQPRQVAIWFQNKRARWKTKQLEKEYNTLRANYNNLASQFEIMKKEKQSLVSELQRLNEEMQRPKEEKHHECCGDQGLALSSSTESHNGKSEPEGRLDQGSVLCNDGDYNNNIKTEYFGFEEETDHELMNIVEKADDSCLTSSENWGGFNSDSLLDQSSSNYPNWWEFWS | failed
13 | MEEISGGALTDTLTDIVTWAAKEVGAIALGASLGAIFGTAYAGRWGGVSGGIFGIGSIGQGVGMIAGVILGGVCFGIAAGIVGWDMTLDYAQGVMDAIYDGTLNFWSN | failed
14 | MEELKTKGEHGNEEAKKAPATGETETVEKNVAIRRTSTASSEQDLDTFLLGDLEDSDEAPDDGDGSLEDDFDKIGNSDVEDEKQSSKATTNAGNEVSC | failed
15 | MEELQYFPYEKFRPNQREFIEIVKEAVKRGENLIVEAPTGFGKTISVLAGVLPYAISLGYKVVYLARTHKQMDRVIEELRKIGEKSEVSGIEFRSRKDLCLHAYIQTFAQDAYTSMIVCKSLRKLGKCKYYENLKEKRDRVDEIVKFFLSFPPFPREVIEYSELLELCPYEITKKVGEKANVVVASYLYMISPPIRQAFLENLGVDYSDLIVIFDEAHNLPDQAISALSDRLSVRSIERAIKEAEEYGEKDIENFLSILLRGLEILYKEKLENYESEEIPIRPEEVFLHPASILGWRGRDIGMMLEDMIEVGDAIREDRIERNLPPRSYVGRVGEFLWNWLSLRDREDYLHLFTKEKGLALELVALDPSVALDFLEEVHSAIFMSGTLSPLEAFRDIIGVNARLKKFPRIVKRENAIVLVARDVSTRGIERSPPLYKRIAEYIFEAVKNTPKNVGVFTASYEVLEGVLSTNVHIKIEEEVGKKVFIEKKDAPSRENDEMIREFKEESKGKGAVLFGVMGGRNSEGQDYSGDEMNGVILVGIPYARPTPRVQAQTRYFEKKFPGKGRYYGYILPAHRKLAQAAGRVHRSENEKGSIVILDYRVLWKNVKKDLPDWMVETMIPVTLPTLRIKLRRFWRERLNE | failed
16 | MEELSSVGEQVFAAECILSKRLRKGKLEYLVKWRGWSSKHNSWEPEENILDPRLLLAFQKKEHEKEVQNRKRGKRPRGRPRKLTAMSSCSRRSKLKEPDAPSKSKSSSSSSSSTSSSSSSDEEDDSDLDAKRGPRGRETHPVPQKKAQILVAKPELKDPIRKKRGRKPLPPEQKATRRPVSLAKVLKTARKDLGAPASKLPPPLSAPVAGLAALKAHAKEACGGPSAMATPENLASLMKGMASSPGRGGISWQSSIVHYMNRMTQSQAQAASRLALKAQATNKCGLGLDLKVRTQKGELGMSPPGSKIPKAPSGGAVEQKVGNTGGPPHTHGASRVPAGCPGPQPAPTQELSLQVLDLQSVKNGMPGVGLLARHATATKGVPATNPAPGKGTGSGLIGASGATMPTDTSKSEKLASRAVAPPTPASKRDCVKGSATPSGQESRTAPGEARKAATLPEMSAGEESSSSDSDPDSASPPSTGQNPSVSVQTSQDWKPTRSLIEHVFVTDVTANLITVTVKESPTSVGFFNLRHY | failed
